Assay results from article PMC4366279 (PLoS ONE, 2015).

B1: T. brucei RNA Editing Ligase 1 (TbREL1), full length wild type [modified: [35S]-methionine labelled; [35S]-methionine labelled] [Trypanosoma brucei] / KREPA2 [modified: [35S]-methionine labelled; [35S]-methionine labelled] [Trypanosoma … (parent complex)
chain 1: YMPLPNDQSDFSPYIEIDLPSESRIQSLHKSGLAAQEWVACEKVHGTNFGIYLINQGDHEVVRFAKRSGIMDPNENFFGYHILIDEFTAQIRILNDLLKQKYGLSRVGRLVLNGELFGAKYKHPLVPKSEKWCTLPNGKKFPIAGVQIQREPFPQYSPELHFFAFDIKYSVSGAEEDFVLLGYDEFVEFSSKVPNLLYARALVRGTLDECLAFDVENFMTPLPALLGLGNYPLEGNLAEGVVIRHVRRGDPAVEKHNVSTIIKLRCSSFMELKHPGKQKELKETFIDTVRSGALRRVRGNVTVISDSMLPQVEAAANDLLLNNVSDGRLSNVLSKIGREPLLSGEVSQVDVVLMLAKDALKDFLKEVDSLVLNTTLAFRKLLITNVYFESKRLVEQKWKELMQEEAAAQSEAIPPLSPAAPTKGE
chain 2: MYRRFFRSAAVKHLGTTSAQCLMRATKYPCGAMCRNASSCHPQTLGYQQRFQSTTDKKFHCSVCKKPFRLEMAAKLHLQQAHGGDGSVEAGPGPGVEASSVNVVSTPVPSPISPVERTFVDEEERRPRRMRPTPKPLHQPDRDIPAAAMEEMLGVWDKIGLNRLEGNFVHSTMVMKVFAAPPDVSEIPLYEHVAPEGENPFDSLDHMTTGTVDATYVGHDAFAEVDLVDPFVAAPDQTLNPFRAGKVRNPFTRISPTQREVVKPLQPPQPKEEPLKAPVTPFGQLPMFGQTREPSASFAAAAVSVQAAANPNEVSSPFAAAVSSSPFVGQVASPFAPAQDVAGSPFEASPCAASSPFVTAGGQETSPFAAPSTPASFGQGSLFPPMGTGAPGFTAITETEQRQQELEHGCPTCGKKFSTFEGAAMHSKSKHGIVLESKKVKDRLNRKGVPDLPAYVPSPVDLSSTSPFGTRSAIGASWAETELIPHAQCVSNITIVGRVLDVSQASENVSHVTVFVEGERSGEEETLTLCCFGEVSQKIRGTLKRNATIFASGTLRLHPVYEASNNKYYVSPVVHVSMPTGTLAVIT

Variants of: B1
Test: co-precipitation (pull-down) with His-tag isolation beads, [35S]-methionine labeled proteins; parent: 100; read off a plot

Which percent of parent does the source give for chain 1 YMPLPNDQSDFSPYIEIDLPSESRIQSLHKSGLAAQAWVACEKVHGTNFGIYLINQGDHEVVRFAKRSGIMDPNENFFGYHILIDEFTAQIRILNDLLKQKYGLSRVGRLVLNGELFGAKYKHPLVPKSEKWCTLPNGKKFPIAGVQIQREPFPQYSPELHFFAFDIKYSVSGAEEDFVLLGYDEFVEFSSKVPNLLYARALVRGTLDECLAFDVENFMTPLPALLGLGNYPLEGNLAEGVVIRHVRRGDPAVEKHNVSTIIKLRCSSFMELKHPGKQKELKETFIDTVRSGALRRVRGNVTVISDSMLPQVEAAANDLLLNNVSDGRLSNVLSKIGREPLLSGEVSQVDVVLMLAKDALKDFLKEVDSLVLNTTLAFRKLLITNVYFESKRLVEQKWKELMQEEAAAQSEAIPPLSPAAPTKGE [chain 1 E37A] here?
The percent of parent was ~67 % of WT.

With chain 1 YMPLPNDQSDFSPYIEIDLPSESRIQSLHKSGLAAQEWVACEKVHGTNFGIYLINQGDHEVVRFAKRSGIMDPNANFFGYHILIDEFTAQIRILNDLLKQKYGLSRVGRLVLNGELFGAKYKHPLVPKSEKWCTLPNGKKFPIAGVQIQREPFPQYSPELHFFAFDIKYSVSGAEEDFVLLGYDEFVEFSSKVPNLLYARALVRGTLDECLAFDVENFMTPLPALLGLGNYPLEGNLAEGVVIRHVRRGDPAVEKHNVSTIIKLRCSSFMELKHPGKQKELKETFIDTVRSGALRRVRGNVTVISDSMLPQVEAAANDLLLNNVSDGRLSNVLSKIGREPLLSGEVSQVDVVLMLAKDALKDFLKEVDSLVLNTTLAFRKLLITNVYFESKRLVEQKWKELMQEEAAAQSEAIPPLSPAAPTKGE [chain 1 E75A] as the variant, how does the percent of parent read?
Its percent of parent is ~74 % of WT.

With chain 1 YMPLPNDQSDFSPYIEIDLPSESRIQSLHKSGLAAQEWVACEKVHGTNFGIYLINQGDHEVVRFAKRSGIMDPNENFFGYHILIDEFTAQIRILNDLLKQKYGLSRVGRLVLNGELFGAKYKHPLVPKSEKWCTLPNGKKFPIAGVQIQREPFPQYSPELHFFAFDIKYSVSGAEEDFVLLGYDEFVEFSSKVPNLLYARALVRGTLDECLAFDVENFMTPLPALLGLGNYPLEGNLAEGVVIRHVRRGDPAVEKHNVSTIIKLRCSSFMELKHPGKQKELKETFIDTVRSGALRRVRGNVTVISDSMLPQVEAAANDLLLNNVSDGRLSNVLSKIGREPLLSGEVSQVDVVLMLAKDALKDFLKEVDSLVLNTTLAFRKLLITNVYFESKRLVEQKAKELMQEEAAAQSEAIPPLSPAAPTKGE [chain 1 W398A] as the variant, how does the percent of parent read?
The percent of parent was ~66 % of WT.

chain 1 YMPLPNDQSDFSPYIEIDLPSESRIQSLHKSGLAAQEWVACEKVHGTNFGIYLINQGDHEVVRFAKRSGIMDPNENFFGYHILIDEFTAQIRILNDLLKQKYGLSRVGRLVLNGELFGAKYKHPLVPKSEKWCTLPNGKKFPIAGVQIQREPFPQYSPELHFFAFDIKYSVSGAEEDFVLLGYDEFVEFSSKVPNLLYARALVRGTLDECLAFDVENFMTPLPALLGLGNYPLEGNLAEGVVIRHVRRGDPAVEKHNVSTIIKLRCSSFMELKHPGKQKELKETFIDTVRSGALRRVRGNVTVISDSMLPQVEAAANDLLLNNVSDGRLSNVLSKIGREPLLSGEVSQVDVVLMLAKDALKDFLKEVDSLVLNTTLAFRKLLITNVYFESARLVEQKWKELMQEEAAAQSEAIPPLSPAAPTKGE [chain 1 K391A] was tested. Which percent of parent did it give?
Its percent of parent is ~88 % of WT.

How did the percent of parent turn out when chain 1 YMPLPNDQSDFSPYIEIDLPSESRIQSLHKSGLAAQEWVACEKVHGTNFGIYLINQGDHEVVRFAKRSGIMDPNENFFGYHILIDEFTAQIRILNDLLKQKYGLSRVGRLVLNGELFGAKYKHPLVPKSEKWCTLPNGKKFPIAGVQIQREPFPQYSPELHFFAFDIKYSVSGAEEDFVLLGYDEFVEFSSKVPNLLYARALVRGTLDECLAFDVENFMTPLPALLGLGNYPLEGNLAEGVVIRHVRRGDPAVEKHNVSTIIKLRCSSFMELKHPGKQKELKETFIDTVRSGALRRVRGNVTVISDSMLPQVEAAANDLLLNNVSDGRLSNVLSKIGREPLLSGEVSQVDVVLMLAKDALKDFLKEVDSLVLNTTLAFRKLLITNVYFESKRLVEQKWAELMQEEAAAQSEAIPPLSPAAPTKGE [chain 1 K399A] was run?
The percent of parent was ~60 % of WT.

With chain 1 YMPLPNDQSDFSPYIEIDLPSESRIQSLHKSGLAAQEWVACEKVHGTNFGIYLINQGDHEVVRFAKRSGIMDPNENFFGYHILIDEFTAQIRILNDLLKQKYGLSRVGRLVLNGELFGAKYKHPLVPKSEKWCTLPNGKKFPIAGVQIQREPFPQYSPELHFFAFDIKYSVSGAEEDFVLLGYDEFVEFSSKVPNLLYARALVRGTLDECLAFDVENFMTPLPALLGLGNYPLEGNLAEGVVIRHVRRGDPAVEKHNVSTIIKLRCSSFMELKHPGKQKELKETFIDTVRSGALRRVRGNVTVISDSMLPQVEAAANDLLLNNVSDGRLSNVLSKIGREPLLSGEVSQVDVVLMLAKDALKDFLKAVDSLVLNTTLAFRKLLITNVYFESKRLVEQKWKELMQEEAAAQSEAIPPLSPAAPTKGE [chain 1 E366A] as the variant, how does the percent of parent read?
The percent of parent was ~72 % of WT.

How did the percent of parent turn out when chain 1 YMPLPNDQSDFSPYIEIDLPSESRIQSLHKSGLAAQEWVACEKVHGTNFGIYLINAGDHEVVRFAKRSGIMDPNENFFGYHILIDEFTAQIRILNDLLKQKYGLSRVGRLVLNGELFGAKYKHPLVPKSEKWCTLPNGKKFPIAGVQIQREPFPQYSPELHFFAFDIKYSVSGAEEDFVLLGYDEFVEFSSKVPNLLYARALVRGTLDECLAFDVENFMTPLPALLGLGNYPLEGNLAEGVVIRHVRRGDPAVEKHNVSTIIKLRCSSFMELKHPGKQKELKETFIDTVRSGALRRVRGNVTVISDSMLPQVEAAANDLLLNNVSDGRLSNVLSKIGREPLLSGEVSQVDVVLMLAKDALKDFLKEVDSLVLNTTLAFRKLLITNVYFESKRLVEQKWKELMQEEAAAQSEAIPPLSPAAPTKGE [chain 1 Q56A] was run?
The percent of parent was ~110 % of WT.

Which percent of parent does the source give for chain 1 YMPLPNDQSDFSPYIEIDLPSESRIQSLHKSGLAAQEWVACEKVHGTNFGIYLINQGDHEVVRFAKRSGIMDPNENFFGYHILIDEFTAQIRILNDLLKQKYGLSRVGRLVLNGELFGAKYKHPLVPKSEKWCTLPNGKKFPIAGVQIQREPFPQYSPELHFFAFDIKYSVSGAEEDFVLLGYDEFVEFSSKVPNLLYARALVRGTLDECLAFDVENFMAPLPALLGLGNYPLEGNLAEGVVIRHVRRGDPAVEKHNVSTIIKLRCSSFMELKHPGKQKELKETFIDTVRSGALRRVRGNVTVISDSMLPQVEAAANDLLLNNVSDGRLSNVLSKIGREPLLSGEVSQVDVVLMLAKDALKDFLKEVDSLVLNTTLAFRKLLITNVYFESKRLVEQKWKELMQEEAAAQSEAIPPLSPAAPTKGE [chain 1 T220A] here?
The percent of parent was ~84 % of WT.

For chain 1 YMPLPNDQSDFSPYIEIDLPSESRIQSLHKSGLAAQEWVACEKVHGTNFGIYLINQGDHEVVRFAKRSGIMDPNENFFGYHILIDEFTAQIRILNDLLKQKYGLSRVGRLVLNGELFGAKYAHPLVPKSEKWCTLPNGKKFPIAGVQIQREPFPQYSPELHFFAFDIKYSVSGAEEDFVLLGYDEFVEFSSKVPNLLYARALVRGTLDECLAFDVENFMTPLPALLGLGNYPLEGNLAEGVVIRHVRRGDPAVEKHNVSTIIKLRCSSFMELKHPGKQKELKETFIDTVRSGALRRVRGNVTVISDSMLPQVEAAANDLLLNNVSDGRLSNVLSKIGREPLLSGEVSQVDVVLMLAKDALKDFLKEVDSLVLNTTLAFRKLLITNVYFESKRLVEQKWKELMQEEAAAQSEAIPPLSPAAPTKGE [chain 1 K122A], which percent of parent is on record?
Its percent of parent is ~100 % of WT.

How did the percent of parent turn out when chain 1 YMPLPNDQSDFSPYIEIDLPSESRIQSLHKSGLAAQEWVACEKVHGTNFGIYLINQGDHEVVRFAKRSGIMDPNENFFGYHILIDEFTAQIRILNDLLKQKYGLSRVGRLVLNGELFGAKYKHPLVPKSEKWCTLPNGKKFPIAGVQIQREPFPQYSPELHFFAFDIKYSVSGAEEDFVLLGYDEFVEFSSKVPNLLYARALVRGTLDECLAFDVENFMTPLPALLGLGNYPLEGNLAEGVVIRHVRRGDPAVEKHNVSTIIKLRCSSFMELKHPGKQKELKETFIDTVRSGALRRVRGNVTVISDSMLPQVEAAANDLLLNNVSDGRLSNVLSKIGREPLLSGEVSQVDVVLMLAKDALKDFLKEVDSLVLNTTLAFRALLITNVYFESKRLVEQKWKELMQEEAAAQSEAIPPLSPAAPTKGE [chain 1 K380A] was run?
Its percent of parent is ~84 % of WT.

How did the percent of parent turn out when chain 1 YMPLPNDQSDFSPYIEIDLPSESRIQSLHKSGLAAQEWVACEKVHGTNFGIYLINQGDHEVVRFAKRSGIMDPNENFFGYHILIDEFTAQIRILNDLLKQKYGLSRVGRLVLNGELFGAKYKHPLVPKSEKWCTLPNGKKFPIAGVQIQREPFPQYSPELHFFAFDIKYSVSGAEEDFVLLGYDEFVEFSSKVPNLLYARALVRGTLDECLAFDVENFMTPLPALLGLGNAPLEGNLAEGVVIRHVRRGDPAVEKHNVSTIIKLRCSSFMELKHPGKQKELKETFIDTVRSGALRRVRGNVTVISDSMLPQVEAAANDLLLNNVSDGRLSNVLSKIGREPLLSGEVSQVDVVLMLAKDALKDFLKEVDSLVLNTTLAFRKLLITNVYFESKRLVEQKWKELMQEEAAAQSEAIPPLSPAAPTKGE [chain 1 Y231A] was run?
The percent of parent was ~75 % of WT.

chain 1 YMPLPNDQSDFSPYIEIDLPSESRIQSLHKSGLAAQEWVACEKVHGTNFGIYLINQGDHEVVRFAKRSGIMDPNENFFGYHILIDEFTAQIRILNDLLKQKYGLSRVGRLVLNGELFGAKYKHPLVPKSEKWCTLPNGKKFPIAGVQIQREPFPQYSPELHFFAFDIKYSVSGAEEDFVLLGYDEFVEFSSKVPNLLYARALVRGTLDECLAFDVENFMTPLPALLGLGNYPLEGNLAEGVVIRHVRRGDPAVEKHNVSTIIKLRCSSFMELKHPGKQKELKETFIDTVRSGALRRVRGNVTVISDSMLPQVEAAANDLLLNNVSDGRLSNVLSAIGREPLLSGEVSQVDVVLMLAKDALKDFLKEVDSLVLNTTLAFRKLLITNVYFESKRLVEQKWKELMQEEAAAQSEAIPPLSPAAPTKGE [chain 1 K335A] was tested. Which percent of parent did it give?
The percent of parent was ~57 % of WT.

Which percent of parent does the source give for chain 1 YMPLPNDQSDFSPYIEIDLPSESRIQSLHKSGLAAQEWVACEKVHGTNFGIYLINQGDHEVVRFAKRSGIMDPNENFFGYHILIDEFTAQIRILNDLLKQKYGLSRVGRLVLNGELFGAKYKHPLVPKSEKWCTLPNGKKFPIAGVQIQREPFPQYSPELHFFAFDIKYSVSGAEEDFVLLGYDEFVEFSSKVPNLLYARALVRGTLDECLAFDVENFMTPLPALLGLGNYPLEGNLAEGVVIRHVRRGDPAVEKHNVATIIKLRCSSFMELKHPGKQKELKETFIDTVRSGALRRVRGNVTVISDSMLPQVEAAANDLLLNNVSDGRLSNVLSKIGREPLLSGEVSQVDVVLMLAKDALKDFLKEVDSLVLNTTLAFRKLLITNVYFESKRLVEQKWKELMQEEAAAQSEAIPPLSPAAPTKGE [chain 1 S259A] here?
The percent of parent was ~100 % of WT.
